{"source": "patent US20140302123A1", "target": "PTPN4 as expressed in U373MG cells (human) (UniProt P29074)", "sequence (P29074 whole entry)": "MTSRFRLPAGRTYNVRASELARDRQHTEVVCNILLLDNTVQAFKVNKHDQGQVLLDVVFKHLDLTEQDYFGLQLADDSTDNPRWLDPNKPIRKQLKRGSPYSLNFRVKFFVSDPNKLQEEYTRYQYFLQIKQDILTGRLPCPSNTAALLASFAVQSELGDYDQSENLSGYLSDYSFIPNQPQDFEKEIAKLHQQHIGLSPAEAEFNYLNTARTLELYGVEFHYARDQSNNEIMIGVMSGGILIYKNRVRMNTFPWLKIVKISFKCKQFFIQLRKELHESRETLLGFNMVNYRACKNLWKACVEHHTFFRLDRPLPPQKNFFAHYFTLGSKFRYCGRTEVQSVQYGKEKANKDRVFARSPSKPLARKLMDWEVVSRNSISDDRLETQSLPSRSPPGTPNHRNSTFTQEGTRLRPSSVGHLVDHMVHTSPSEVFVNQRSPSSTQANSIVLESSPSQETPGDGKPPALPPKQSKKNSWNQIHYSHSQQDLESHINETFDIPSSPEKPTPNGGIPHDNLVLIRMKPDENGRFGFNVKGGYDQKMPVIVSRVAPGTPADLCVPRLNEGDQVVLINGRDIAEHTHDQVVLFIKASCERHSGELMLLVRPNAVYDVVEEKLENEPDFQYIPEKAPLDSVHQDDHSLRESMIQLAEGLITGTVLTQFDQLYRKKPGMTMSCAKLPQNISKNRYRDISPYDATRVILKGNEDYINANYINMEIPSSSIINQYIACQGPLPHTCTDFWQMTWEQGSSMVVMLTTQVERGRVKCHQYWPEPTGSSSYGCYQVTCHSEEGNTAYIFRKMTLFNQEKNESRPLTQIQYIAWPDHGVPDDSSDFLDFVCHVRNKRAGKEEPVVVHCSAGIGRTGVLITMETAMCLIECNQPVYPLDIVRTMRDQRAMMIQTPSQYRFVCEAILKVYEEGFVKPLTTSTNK", "assay": "cell-based or functional assay"}
{"substance": "Tat-conjugated, FITC-labelled GluN2A-16 (peptide)", "values": [{"measurement": "cell death (% of dead cells among peptide loaded cells), U373MG, 3 h, 25 microM, propidium iodide", "value": 29, "unit": "%"}]}
